Assay results: paper doi:10.1101/2021.02.22.432310

Target: mGFP-UvrD (genomically integrated) (E. coli) (UniProt P03018)
Experiment: single-molecule fluorescence microscopy

mGFP-UvrD (genomically integrated) (from UniProt P03018 1-720) (enzyme)
stoichiometry N: 4
